Reference: US20210246166A1 (Bayer, published 2021)
Numbered stars: 1 amine (or outer) side, 2 acyl side, 3 side chain; on linkers, the order of the positions; unused ones are H or OH. Bridge positions count the residues as written; N and C are the ends. Square brackets hold non-standard residues; d marks the D form. Primed or numbered codes have the meaning given here. Ends that are not written are not given here. * marks the point of attachment. Leu(4-F)″ = 4-fluoro-L-leucine, CC(C)(F)C[C@H](N[*:1])C(=O)[*:2]; Piperidin‑4‑ylacetic acid = O=C(CC1CCNCC1)*; Oic = O=C(O)[C@@H]1C[C@@H]2CCCC[C@@H]2N1; Cyclopropylacetic acid = O=C(CC1CC1)*; Gly(cPent) = N[C@H](C(=O)O)C1CCCC1; NMeI = CC[C@H](C)[C@H](NC)C(=O)O; tBuAla = CC(C)(C)C[C@H](N)C(=O)O; Chg = N[C@H](C(=O)O)C1CCCCC1; NMePro = CN1CCC[C@H]1C(=O)*; NMeC = CN[C@@H](CS)C(=O)O; NMeA = CN[C@@H](C)C(=O)O; Sar = CNCC(=O)O

T1: recombinant rat MASP1 active protease (amino acids 302-704, C-terminal His Tag) (rat, UniProt Q8CHN8 302-704)
T1 sequence: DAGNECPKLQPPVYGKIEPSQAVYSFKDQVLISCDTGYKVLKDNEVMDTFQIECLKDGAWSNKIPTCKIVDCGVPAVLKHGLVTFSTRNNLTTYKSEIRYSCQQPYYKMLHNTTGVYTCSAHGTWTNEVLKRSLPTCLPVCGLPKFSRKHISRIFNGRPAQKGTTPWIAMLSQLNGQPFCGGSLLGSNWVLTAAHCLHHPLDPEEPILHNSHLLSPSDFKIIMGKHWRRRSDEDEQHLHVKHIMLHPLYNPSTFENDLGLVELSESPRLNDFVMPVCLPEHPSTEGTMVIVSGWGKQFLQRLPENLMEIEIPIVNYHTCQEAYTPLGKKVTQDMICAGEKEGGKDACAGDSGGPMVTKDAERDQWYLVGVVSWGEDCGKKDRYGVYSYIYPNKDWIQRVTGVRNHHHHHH

B1: Example 276: G-((N-Me)I)-C+SRSLPPIC+IPd-OH (peptide)
peptide: G[NMeI]CSRSLPPICIP[dD]-OH
modifications: disulfide 3-11; N-terminus assumed
SMILES: CC[C@H](C)[C@@H]1NC(=O)[C@@H]2CCCN2C(=O)[C@@H]2CCCN2C(=O)[C@H](CC(C)C)NC(=O)[C@H](CO)NC(=O)[C@H](CCCNC(=N)N)NC(=O)[C@H](CO)NC(=O)[C@@H](NC(=O)[C@H]([C@@H](C)CC)N(C)C(=O)CN)CSSC[C@@H](C(=O)N[C@H](C(=O)N2CCC[C@H]2C(=O)N[C@H](CC(=O)O)C(=O)O)[C@@H](C)CC)NC1=O
B2: Example 241: AIC+SRSL-((4aR,6aR,9S,11aS)-11-Oxo-2,3,4,4a,6a,7,8,9,11,11a-decahydro-1H-pyrido[3,2-e]pyrrolo[1,2-a]azepine-9-carboxylic acid)-IC+IPD-NH2 (peptide)
peptide: AICSRSL[(4aR,6aR,9S,11aS)‑11‑Oxo‑2,3,4,4a,6a,7,8,9,11,11a‑decahydro‑1H‑pyrido(3,2-e)pyrrolo(1,2-a)azepine‑9‑carboxylic acid]ICIPD-NH2
modifications: disulfide 3-10
B3: Example 260: A-((N-Me)I)-C+SRSLPPIC+IPD-NH2 (peptide)
peptide: A[NMeI]CSRSLPPICIPD-NH2
modifications: disulfide 3-11; N-terminus assumed
SMILES: CC[C@H](C)[C@@H]1NC(=O)[C@@H]2CCCN2C(=O)[C@@H]2CCCN2C(=O)[C@H](CC(C)C)NC(=O)[C@H](CO)NC(=O)[C@H](CCCNC(=N)N)NC(=O)[C@H](CO)NC(=O)[C@@H](NC(=O)[C@H]([C@@H](C)CC)N(C)C(=O)[C@H](C)N)CSSC[C@@H](C(=O)N[C@H](C(=O)N2CCC[C@H]2C(=O)N[C@@H](CC(=O)O)C(N)=O)[C@@H](C)CC)NC1=O
B4: Example 275: G-((N-Me)I)-C+SRSLPPIC+IPD-OH (peptide)
peptide: G[NMeI]CSRSLPPICIPD-OH
modifications: disulfide 3-11; N-terminus assumed
SMILES: CC[C@H](C)[C@@H]1NC(=O)[C@@H]2CCCN2C(=O)[C@@H]2CCCN2C(=O)[C@H](CC(C)C)NC(=O)[C@H](CO)NC(=O)[C@H](CCCNC(=N)N)NC(=O)[C@H](CO)NC(=O)[C@@H](NC(=O)[C@H]([C@@H](C)CC)N(C)C(=O)CN)CSSC[C@@H](C(=O)N[C@H](C(=O)N2CCC[C@H]2C(=O)N[C@@H](CC(=O)O)C(=O)O)[C@@H](C)CC)NC1=O
B5: Example 268: AIC+SRS-((tBu)A)-P-(Oic)-I-((N-Me)C)+IPD-NH2 (peptide)
peptide: AICSRS[tBuAla]P[Oic]I[NMeC]IPD-NH2
modifications: disulfide 3-11; N-terminus assumed
SMILES: CC[C@H](C)[C@H](NC(=O)[C@H](C)N)C(=O)N[C@H]1CSSC[C@@H](C(=O)N[C@H](C(=O)N2CCC[C@H]2C(=O)N[C@@H](CC(=O)O)C(N)=O)[C@@H](C)CC)N(C)C(=O)[C@H]([C@@H](C)CC)NC(=O)[C@@H]2C[C@@H]3CCCC[C@@H]3N2C(=O)[C@@H]2CCCN2C(=O)[C@H](CC(C)(C)C)NC(=O)[C@H](CO)NC(=O)[C@H](CCCNC(=N)N)NC(=O)[C@H](CO)NC1=O
B6: Example 246: ((N-Me)G)-IC+SRS-((tBu)A)-PPIC+IPD-OH (peptide)
peptide: [Sar]ICSRS[tBuAla]PPICIPD-OH
modifications: disulfide 3-11; N-terminus assumed
SMILES: CC[C@H](C)[C@H](NC(=O)CNC)C(=O)N[C@H]1CSSC[C@@H](C(=O)N[C@H](C(=O)N2CCC[C@H]2C(=O)N[C@@H](CC(=O)O)C(=O)O)[C@@H](C)CC)NC(=O)[C@H]([C@@H](C)CC)NC(=O)[C@@H]2CCCN2C(=O)[C@@H]2CCCN2C(=O)[C@H](CC(C)(C)C)NC(=O)[C@H](CO)NC(=O)[C@H](CCCNC(=N)N)NC(=O)[C@H](CO)NC1=O
B7: Example 253: ((N-Me)A)-IC+SRS-((tBu)A)-PPIC+IPD-NH2 (peptide)
peptide: [NMeA]ICSRS[tBuAla]PPICIPD-NH2
modifications: disulfide 3-11; N-terminus assumed
SMILES: CC[C@H](C)[C@H](NC(=O)[C@H](C)NC)C(=O)N[C@H]1CSSC[C@@H](C(=O)N[C@H](C(=O)N2CCC[C@H]2C(=O)N[C@@H](CC(=O)O)C(N)=O)[C@@H](C)CC)NC(=O)[C@H]([C@@H](C)CC)NC(=O)[C@@H]2CCCN2C(=O)[C@@H]2CCCN2C(=O)[C@H](CC(C)(C)C)NC(=O)[C@H](CO)NC(=O)[C@H](CCCNC(=N)N)NC(=O)[C@H](CO)NC1=O
B8: Example 248: AIC+SRS-((4-Fluoro)L)-PPIC+IPD-NH2 (peptide)
peptide: AICSRS[Leu(4-F)″]PPICIPD-NH2
modifications: disulfide 3-11; N-terminus assumed
SMILES: CC[C@H](C)[C@H](NC(=O)[C@H](C)N)C(=O)N[C@H]1CSSC[C@@H](C(=O)N[C@H](C(=O)N2CCC[C@H]2C(=O)N[C@@H](CC(=O)O)C(N)=O)[C@@H](C)CC)NC(=O)[C@H]([C@@H](C)CC)NC(=O)[C@@H]2CCCN2C(=O)[C@@H]2CCCN2C(=O)[C@H](CC(C)(C)F)NC(=O)[C@H](CO)NC(=O)[C@H](CCCNC(=N)N)NC(=O)[C@H](CO)NC1=O
B9: Example 262: AIC+SRSLPP-(Cpg)-C+IPD-NH2 (peptide)
peptide: AICSRSLPP[Gly(cPent)]CIPD-NH2
modifications: disulfide 3-11; N-terminus assumed
SMILES: CC[C@H](C)[C@H](NC(=O)[C@H](C)N)C(=O)N[C@H]1CSSC[C@@H](C(=O)N[C@H](C(=O)N2CCC[C@H]2C(=O)N[C@@H](CC(=O)O)C(N)=O)[C@@H](C)CC)NC(=O)[C@H](C2CCCC2)NC(=O)[C@@H]2CCCN2C(=O)[C@@H]2CCCN2C(=O)[C@H](CC(C)C)NC(=O)[C@H](CO)NC(=O)[C@H](CCCNC(=N)N)NC(=O)[C@H](CO)NC1=O
B10: Example 270: AIC+SRSLP-(Oic)-(Chg)-C+IPD-NH2 (peptide)
peptide: AICSRSLP[Oic][Chg]CIPD-NH2
modifications: disulfide 3-11; N-terminus assumed
SMILES: CC[C@H](C)[C@H](NC(=O)[C@H](C)N)C(=O)N[C@H]1CSSC[C@@H](C(=O)N[C@H](C(=O)N2CCC[C@H]2C(=O)N[C@@H](CC(=O)O)C(N)=O)[C@@H](C)CC)NC(=O)[C@H](C2CCCCC2)NC(=O)[C@@H]2C[C@@H]3CCCC[C@@H]3N2C(=O)[C@@H]2CCCN2C(=O)[C@H](CC(C)C)NC(=O)[C@H](CO)NC(=O)[C@H](CCCNC(=N)N)NC(=O)[C@H](CO)NC1=O
B11: Example 261: G-((N-Me)I)-C+SRSLPPIC+IPD-NH2 (peptide)
peptide: G[NMeI]CSRSLPPICIPD-NH2
modifications: disulfide 3-11; N-terminus assumed
SMILES: CC[C@H](C)[C@@H]1NC(=O)[C@@H]2CCCN2C(=O)[C@@H]2CCCN2C(=O)[C@H](CC(C)C)NC(=O)[C@H](CO)NC(=O)[C@H](CCCNC(=N)N)NC(=O)[C@H](CO)NC(=O)[C@@H](NC(=O)[C@H]([C@@H](C)CC)N(C)C(=O)CN)CSSC[C@@H](C(=O)N[C@H](C(=O)N2CCC[C@H]2C(=O)N[C@@H](CC(=O)O)C(N)=O)[C@@H](C)CC)NC1=O
B12: Example 243: ((N,N-diMe)A)-IC+SRS-((tBu)A)-PPIC+IPD-NH2 (peptide)
peptide: [(N,N-diMe)A]ICSRS[tBuAla]PPICIPD-NH2
modifications: disulfide 3-11
B13: Example 259: (Piperidin-4-ylacetic acid)-IC+SRS-((tBu)A)-PPI-((N-Me)C)+I-NH2 (peptide)
peptide: {Piperidin‑4‑ylacetic acid}-ICSRS[tBuAla]PPI[NMeC]I-NH2
modifications: disulfide 2-10
SMILES: CC[C@H](C)[C@H](NC(=O)[C@@H]1CSSC[C@H](NC(=O)[C@@H](NC(=O)CC2CCNCC2)[C@@H](C)CC)C(=O)N[C@@H](CO)C(=O)N[C@@H](CCCNC(=N)N)C(=O)N[C@@H](CO)C(=O)N[C@@H](CC(C)(C)C)C(=O)N2CCC[C@H]2C(=O)N2CCC[C@H]2C(=O)N[C@@H]([C@@H](C)CC)C(=O)N1C)C(N)=O
B14: Example 254: AIC+SRSLPP-(Chg)-C+IPD-NH2 (peptide)
peptide: AICSRSLPP[Chg]CIPD-NH2
modifications: disulfide 3-11; N-terminus assumed
SMILES: CC[C@H](C)[C@H](NC(=O)[C@H](C)N)C(=O)N[C@H]1CSSC[C@@H](C(=O)N[C@H](C(=O)N2CCC[C@H]2C(=O)N[C@@H](CC(=O)O)C(N)=O)[C@@H](C)CC)NC(=O)[C@H](C2CCCCC2)NC(=O)[C@@H]2CCCN2C(=O)[C@@H]2CCCN2C(=O)[C@H](CC(C)C)NC(=O)[C@H](CO)NC(=O)[C@H](CCCNC(=N)N)NC(=O)[C@H](CO)NC1=O
B15: Example 274: (Cyclopropylacetic acid)-IC+SRS-((tBu)A)-PPI-((N-Me)C)+I-NH2 (peptide)
peptide: {Cyclopropylacetic acid}-ICSRS[tBuAla]PPI[NMeC]I-NH2
modifications: disulfide 2-10
SMILES: CC[C@H](C)[C@H](NC(=O)[C@@H]1CSSC[C@H](NC(=O)[C@@H](NC(=O)CC2CC2)[C@@H](C)CC)C(=O)N[C@@H](CO)C(=O)N[C@@H](CCCNC(=N)N)C(=O)N[C@@H](CO)C(=O)N[C@@H](CC(C)(C)C)C(=O)N2CCC[C@H]2C(=O)N2CCC[C@H]2C(=O)N[C@@H]([C@@H](C)CC)C(=O)N1C)C(N)=O
B16: Example 247: AIC+SRSLPP-(Chg)-C+I-NH2 (peptide)
peptide: AICSRSLPP[Chg]CI-NH2
modifications: disulfide 3-11; N-terminus assumed
SMILES: CC[C@H](C)[C@H](NC(=O)[C@@H]1CSSC[C@H](NC(=O)[C@@H](NC(=O)[C@H](C)N)[C@@H](C)CC)C(=O)N[C@@H](CO)C(=O)N[C@@H](CCCNC(=N)N)C(=O)N[C@@H](CO)C(=O)N[C@@H](CC(C)C)C(=O)N2CCC[C@H]2C(=O)N2CCC[C@H]2C(=O)N[C@@H](C2CCCCC2)C(=O)N1)C(N)=O
B17: Example 250: ((N-Me)P)-IC+SRS-((tBu)A)-PPIC+IPD-NH2 (peptide)
peptide: [NMePro]ICSRS[tBuAla]PPICIPD-NH2
modifications: disulfide 3-11
SMILES: CC[C@H](C)[C@H](NC(=O)[C@@H]1CCCN1C)C(=O)N[C@H]1CSSC[C@@H](C(=O)N[C@H](C(=O)N2CCC[C@H]2C(=O)N[C@@H](CC(=O)O)C(N)=O)[C@@H](C)CC)NC(=O)[C@H]([C@@H](C)CC)NC(=O)[C@@H]2CCCN2C(=O)[C@@H]2CCCN2C(=O)[C@H](CC(C)(C)C)NC(=O)[C@H](CO)NC(=O)[C@H](CCCNC(=N)N)NC(=O)[C@H](CO)NC1=O

The binders below were run against T1, recombinant rat MASP1 active protease … (assay: cell-based or functional assay).

| rat MASP1 IC50 [nM] | Binder |
| --- | --- |
| 200 | B1 |
| 130 | B2 |
| 160 | B3 |
| 150 | B4 |
| 100 | B5 |
| 78 | B6 |
| 130 | B7 |
| 260 | B8 |
| 490 | B9 |
| 170 | B10 |
| 300 | B11 |
| 140 | B12 |
| 27 | B13 |
| 320 | B14 |
| 89 | B15 |
| 700 | B16 |
| 77 | B17 |
